Assay results from the MegaScale stability set (Tsuboyama et al. 2023).

B1: r16_88_TrROS_Hall (parent)
chain: EVIELKIKFKTPEQREKLKEIAKKLNAEVVEEKDGEVIIRFKTPEQAERALKEAEKLGAEVEL

Variants of: B1
Assay: folding stability dG (cDNA display proteolysis); higher = more stable
Settings: PBS, room temperature

| Variant | folding stability dG [kcal/mol] |
| --- | --- |
| EVIELKIKFKTPEQREKLKEIAKKLNAEVVEEKDGEVIIRFKTPEQAERALKEAEKLKAEVEL [G58K] | 4.25 |
| EVIELKIKFKTPEQREKLKEIAKKLNAEVVEEKDGEVIIRFKTPEQAERALKEAEKLAAEVEL [G58A] | 4.3 |
| EVIELKIKFKTPEQREKLKEIAKKLNAEVVEEKDGEVIIRFKTPEQAERALKEAEKLNAEVEL [G58N] | 4.25 |
| EVHELKIKFKTPEQREKLKEIAKKLNAEVVEEKDGEVIIRFKTPEQAERALKEAEKLGAEVEL [I3H] | 4.7 |
| EVLELKIKFKTPEQREKLKEIAKKLNAEVVEEKDGEVIIRFKTPEQAERALKEAEKLGAEVEL [I3L] | 4.63 |
| EVVELKIKFKTPEQREKLKEIAKKLNAEVVEEKDGEVIIRFKTPEQAERALKEAEKLGAEVEL [I3V] | 4.58 |
| EVRELKIKFKTPEQREKLKEIAKKLNAEVVEEKDGEVIIRFKTPEQAERALKEAEKLGAEVEL [I3R] | 4.61 |
| EVIEKKIKFKTPEQREKLKEIAKKLNAEVVEEKDGEVIIRFKTPEQAERALKEAEKLGAEVEL [L5K] | 4.38 |
| EVIEVKIKFKTPEQREKLKEIAKKLNAEVVEEKDGEVIIRFKTPEQAERALKEAEKLGAEVEL [L5V] | 4.29 |
| EVIEIKIKFKTPEQREKLKEIAKKLNAEVVEEKDGEVIIRFKTPEQAERALKEAEKLGAEVEL [L5I] | 4.26 |
| EVIELKIKFKTPEQREKLKEIAKELNAEVVEEKDGEVIIRFKTPEQAERALKEAEKLGAEVEL [K24E] | 4.43 |
| EVIELKIKFKTPEQREKLKEIAKWLNAEVVEEKDGEVIIRFKTPEQAERALKEAEKLGAEVEL [K24W] | 4.77 |
| EVIELKIKFKTPEQREKLKEIAKVLNAEVVEEKDGEVIIRFKTPEQAERALKEAEKLGAEVEL [K24V] | 4.61 |
| EVIELKIKFKTPEQRGKLKEIAKKLNAEVVEEKDGEVIIRFKTPEQAERALKEAEKLGAEVEL [E16G] | 4.52 |
| EVIELKIKFKTPEQRAKLKEIAKKLNAEVVEEKDGEVIIRFKTPEQAERALKEAEKLGAEVEL [E16A] | 4.32 |
| EVIELKIKFKTPEQREKLKEIAKKLNSEVVEEKDGEVIIRFKTPEQAERALKEAEKLGAEVEL [A27S] | 4.31 |
| EVIELKIKFKTPEQREKLKEIAKKLNAEVVEEKDGEVIINFKTPEQAERALKEAEKLGAEVEL [R40N] | 4.13 |
| EVIELKIKFKTPEQREKLKEIAKKLNAEVVEEKDGEVIIAFKTPEQAERALKEAEKLGAEVEL [R40A] | 4.3 |
| EVIELKIKFKTPEQREKLKEIAKKLNAEVVEEKDGEVIIRFKTPEQAERALKEAPKLGAEVEL [E55P] | 3.67 |
| EVIELKIKFKTPEQREKLKEIAKKLNAEVVEEKDGEVIIRFKTPEQAERALKEACKLGAEVEL [E55C] | 4.43 |
| EVIELKIKFKTPEQREKLKEIAKKLNAEVVEEYDGEVIIRFKTPEQAERALKEAEKLGAEVEL [K33Y] | 4.31 |

| Variant | folding stability dG [kcal/mol] |
| --- | --- |
| EVIELKIKFKTPEQREKLKEIAKKLNAEVVEEHDGEVIIRFKTPEQAERALKEAEKLGAEVEL [K33H] | 4.45 |
| EVIELKIKFKTPEQREKHKEIAKKLNAEVVEEKDGEVIIRFKTPEQAERALKEAEKLGAEVEL [L18H] | 3.49 |
| EVIELKIKFKTPEQREKLKEIADKLNAEVVEEKDGEVIIRFKTPEQAERALKEAEKLGAEVEL [K23D] | 4.09 |
| EVIELKIKFKTPEQREKLKEIAKKLNAEVVEEKDGEVIIRFKTPEQAERALKEAEKLGKEVEL [A59K] | 4.31 |
| EVIELKIKFKTPEQREKLKEIAKKLNAEVVEEKDGEVIIRFKTPEQAERALKEAEKLGVEVEL [A59V] | 4.65 |
| EVIELKIKFKTPEQREKLKEIAKKLNAEVVEEKDGEVIIRFKTPEQAVRALKEAEKLGAEVEL [E48V] | 4.17 |
| EVIELKIKFKTPVQREKLKEIAKKLNAEVVEEKDGEVIIRFKTPEQAERALKEAEKLGAEVEL [E13V] | 4.37 |
| EVIELKIKFKTPRQREKLKEIAKKLNAEVVEEKDGEVIIRFKTPEQAERALKEAEKLGAEVEL [E13R] | 4.58 |
| EVIELKIKFKTPEQREKLKEIAKKLNAEVVEEKDGEVIIRFKTPEQAEQALKEAEKLGAEVEL [R49Q] | 4.41 |
| EVIELKIKFKTPEQREKLKEIAKKLNAEVVEEKDGEVIIRFKTPEQAEKALKEAEKLGAEVEL [R49K] | 4.15 |
| EVIELKIKFKTPEQHEKLKEIAKKLNAEVVEEKDGEVIIRFKTPEQAERALKEAEKLGAEVEL [R15H] | 4.27 |
| EVIELKIKFKTPEQEEKLKEIAKKLNAEVVEEKDGEVIIRFKTPEQAERALKEAEKLGAEVEL [R15E] | 4.31 |
| EVIELKIKFKTPEQREKLKEIAKKLNAEVVEEKRGEVIIRFKTPEQAERALKEAEKLGAEVEL [D34R] | 4.23 |
| EVIELKIKFKTPEQREKLKEIAKKLNAEVVEEKAGEVIIRFKTPEQAERALKEAEKLGAEVEL [D34A] | 4.32 |
| EVIYLKIKFKTPEQREKLKEIAKKLNAEVVEEKDGEVIIRFKTPEQAERALKEAEKLGAEVEL [E4Y] | 4.64 |
| EVIELKIKFKTPEQREKLKEIAKKLNAEVVEEKDGEHIIRFKTPEQAERALKEAEKLGAEVEL [V37H] | 4.38 |
| EVIELKIKFKTPEQREKLKEIAKKPNAEVVEEKDGEVIIRFKTPEQAERALKEAEKLGAEVEL [L25P] | 3.67 |
| EVIELKIKFKTPEQREKLKEIAKKMNAEVVEEKDGEVIIRFKTPEQAERALKEAEKLGAEVEL [L25M] | 4.28 |
| EVIELKIKFKTPEQREKLKEIAKKTNAEVVEEKDGEVIIRFKTPEQAERALKEAEKLGAEVEL [L25T] | 4.29 |
| EVIELKIKFKTPEQREKLKEIAKKLNAEVVEEKDGEVIIRFKTPEQAERALKEAEKLGAEVDL [E62D] | 4.59 |
| EVIELKIKFKTPEQREKLKEIAKKLNAEVVEEKDGEVIIRFKTPEQAERALKEAEKLGAEVML [E62M] | 4.24 |
